Results as given in article PMC2711566.

T1: recombinant TIP47 (human), O60664
T1 chain: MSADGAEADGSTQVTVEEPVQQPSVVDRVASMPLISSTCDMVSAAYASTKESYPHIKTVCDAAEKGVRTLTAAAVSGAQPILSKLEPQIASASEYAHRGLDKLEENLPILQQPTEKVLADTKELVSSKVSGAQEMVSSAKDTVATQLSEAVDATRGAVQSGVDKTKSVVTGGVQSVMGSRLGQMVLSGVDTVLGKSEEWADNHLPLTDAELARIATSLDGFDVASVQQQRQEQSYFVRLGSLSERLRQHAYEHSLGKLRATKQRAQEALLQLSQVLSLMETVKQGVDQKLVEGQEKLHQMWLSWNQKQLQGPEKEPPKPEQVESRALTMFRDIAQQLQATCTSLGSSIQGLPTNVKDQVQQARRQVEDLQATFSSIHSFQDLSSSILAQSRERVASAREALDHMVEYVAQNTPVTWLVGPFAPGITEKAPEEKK


How the values were obtained:
GST = experiment: native gel or EMSA
[1] = biological target: T1, recombinant TIP47 (human), O60664; experiment: SEC; settings: remark: other sources report otherwise

GST, sequence (P08515 2-218): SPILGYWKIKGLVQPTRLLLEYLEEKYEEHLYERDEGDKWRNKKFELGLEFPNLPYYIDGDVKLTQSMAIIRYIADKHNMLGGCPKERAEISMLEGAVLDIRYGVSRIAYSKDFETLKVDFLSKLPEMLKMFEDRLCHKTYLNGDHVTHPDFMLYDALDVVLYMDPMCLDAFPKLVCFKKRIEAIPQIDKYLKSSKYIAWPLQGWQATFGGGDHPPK

stoichiometry N [1] | Molecule | stoichiometry N (GST)
 | GST (natural protein) | 2
3 | recombinant TIP47, O60664 1-434 (natural protein) MSADGAEADGSTQVTVEEPVQQPSVVDRVASMPLISSTCDMVSAAYASTKESYPHIKTVCDAAEKGVRTLTAAAVSGAQPILSKLEPQIASASEYAHRGLDKLEENLPILQQPTEKVLADTKELVSSKVSGAQEMVSSAKDTVATQLSEAVDATRGAVQSGVDKTKSVVTGGVQSVMGSRLGQMVLSGVDTVLGKSEEWADNHLPLTDAELARIATSLDGFDVASVQQQRQEQSYFVRLGSLSERLRQHAYEHSLGKLRATKQRAQEALLQLSQVLSLMETVKQGVDQKLVEGQEKLHQMWLSWNQKQLQGPEKEPPKPEQVESRALTMFRDIAQQLQATCTSLGSSIQGLPTNVKDQVQQARRQVEDLQATFSSIHSFQDLSSSILAQSRERVASAREALDHMVEYVAQNTPVTWLVGPFAPGITEKAPEEKK | 
